Reference: the supplement of paper PMC7877785
± gives the uncertainty stated by the source.

Assay: self-splicing fitness, log relative to wild type (ln ratio); higher = more splicing; Tetrahymena group I intron in knt gene, E. coli kanamycin selection, DiMSum; sequences stand for … in CUCUCU…GGAGGGAAAAGUUAUCAGGCAUGCACCUGGUAGCUAGUCUUUAAACCAAUAGAUUGCAUCGGUUUAAAAGGCAAGACCGUCAAAUUGCGGGAAAGGGGUCAACAGCCGUUCAGUACCAAGUCUCAGGGGAAACUUUGAGAUGGCCUUGCAAAGGGUAUGGUAAUAAGCUGACGGACAUGGUCCUAACCACGCAGCCAAGUCCUAAGUCAACAGAUCUUCUGUUGAUAUGGAUGCAGUUCACAGACUAAAUGUCGGUCGGGGAAGAUGUAUUCUUCUCAUAAGAUAUAGUCGGACCUCUCCUUAAUGGGAGCUAGCGGAUGAAGUGAUGCAACACUGGAGCCGCUGGGAACUAAUUUGUAUGCGAAAGUAUAUUGAUUAGUUUUGGAGUACUCGUGGUCG
Outline: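 DiMSum derived fitness as the error-weighted combination of fold changes across replicates, kanamycin versus no kanamycin, normalised to wild type. E. coli BL21(DE3) held the library, which randomised all eight P1ex-region intron nucleotides within the knt kanamycin-resistance gene on pET-22b(+). Six replicate transformations grew overnight at 37°C or 30°C on LB agar with or without 25 μg/mL kanamycin, also containing 100 μg/mL carbenicillin, 50 μM IPTG and 0.2% rhamnose, and pooled colonies were amplicon-sequenced on an Illumina HiSeq 2500.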

| Sequence | self-splicing fitness (ln) (30 °C) | self-splicing fitness (ln) (37 °C) |
| --- | --- | --- |
| UGCCAGCAAUAUUACGUGAA | -1.73 ± 0.09 | -0.422 ± 0.1 |
| UGCCAGCAAUAUUACGUGCC | -1.03 ± 0.095 | 0.0809 ± 0.15 |
| UGCCAGCAAUAUUACGUUAC | -2.48 ± 0.23 | -3.38 ± 0.31 |
| UGCGAGCAAUAUUACGAAAC | -2.99 ± 0.17 | -3.8 ± 0.34 |
| UGCGAGCAAUAUUACGACUU | -2.13 ± 0.43 | -1.7 ± 0.41 |
| UGCGAGCAAUAUUACGAGUU | -3.05 ± 0.14 | -1.35 ± 0.13 |
| UGCGAGCAAUAUUACGAUUU | -3.11 ± 0.37 | -0.802 ± 0.16 |
| UGCGAGCAAUAUUACGCGUU | -3.38 ± 0.27 | -1.39 ± 0.18 |
| UGCGAGCAAUAUUACGCUCA | – | 0.239 ± 0.26 |
| UGCGAGCAAUAUUACGGCGC | -2.34 ± 0.46 | – |
| UGCGAGCAAUAUUACGGUCU | -2.12 ± 0.15 | -1.45 ± 0.25 |
| UGCGAGCAAUAUUACGUCUG | -1.24 ± 0.1 | -1.36 ± 0.13 |
| UGCGAGCAAUAUUACGUGGG | -4.32 ± 0.43 | -2.69 ± 0.23 |
| UGCGAGCAAUAUUACGUGGU | -3.4 ± 0.18 | -2.63 ± 0.21 |
| UGCGAGCAAUAUUACGUGUA | -2.83 ± 0.11 | -1.01 ± 0.1 |
| UGCUAGCAAUAUUACGAAUG | -0.8 ± 0.1 | 0.288 ± 0.16 |
| UGCUAGCAAUAUUACGACAG | -0.698 ± 0.059 | 0.337 ± 0.093 |
| UGCUAGCAAUAUUACGACCG | -0.534 ± 0.17 | -0.458 ± 0.19 |
| UGCUAGCAAUAUUACGACGA | -0.229 ± 0.13 | 0.191 ± 0.12 |
| UGCUAGCAAUAUUACGAGCC | -0.0254 ± 0.11 | -0.681 ± 0.2 |
| UGCUAGCAAUAUUACGAUAU | -2.3 ± 0.23 | -2.25 ± 0.21 |
| UGCUAGCAAUAUUACGCAAG | -3.87 ± 0.33 | -3.11 ± 0.25 |
| UGCUAGCAAUAUUACGCAGU | -3.21 ± 0.31 | -2.51 ± 0.43 |
| UGCUAGCAAUAUUACGCAUU | -3.79 ± 0.39 | -1.85 ± 0.34 |
| UGCUAGCAAUAUUACGCCCG | -0.583 ± 0.19 | 0.807 ± 0.3 |

| Sequence | self-splicing fitness (ln) (30 °C) | self-splicing fitness (ln) (37 °C) |
| --- | --- | --- |
| UGCUAGCAAUAUUACGCGAA | -2.97 ± 0.32 | -1.88 ± 0.21 |
| UGCUAGCAAUAUUACGCGAC | -2.66 ± 0.26 | -1.58 ± 0.3 |
| UGCUAGCAAUAUUACGCGGA | -2.16 ± 0.12 | -1.24 ± 0.12 |
| UGCUAGCAAUAUUACGCUGG | -3.07 ± 0.23 | -2.25 ± 0.32 |
| UGCUAGCAAUAUUACGGAAG | -3.4 ± 0.35 | -2.31 ± 0.39 |
| UGCUAGCAAUAUUACGGAUC | – | -0.421 ± 0.19 |
| UGCUAGCAAUAUUACGGCUC | -1.4 ± 0.2 | -1.33 ± 0.23 |
| UGCUAGCAAUAUUACGUAUC | – | -2.07 ± 0.38 |
| UGCUAGCAAUAUUACGUAUG | -1.1 ± 0.067 | -0.309 ± 0.089 |
| UGCUAGCAAUAUUACGUCAU | -2.72 ± 0.24 | -2.61 ± 0.22 |
| UGCUAGCAAUAUUACGUCGG | -2.68 ± 0.25 | -0.202 ± 0.23 |
| UGCUAGCAAUAUUACGUCUC | -3.59 ± 0.16 | -2.91 ± 0.2 |
| UGCUAGCAAUAUUACGUCUU | -1.85 ± 0.093 | -0.906 ± 0.088 |
| UGCUAGCAAUAUUACGUUCU | -0.686 ± 0.092 | -0.861 ± 0.12 |
| UGGAAGCAAUAUUACGACGC | -1.66 ± 0.22 | -1.05 ± 0.28 |
| UGGAAGCAAUAUUACGAUAA | -1.6 ± 0.12 | -0.36 ± 0.15 |
| UGGAAGCAAUAUUACGCAGC | -2.22 ± 0.42 | -2.6 ± 0.26 |
| UGGAAGCAAUAUUACGCCAG | -1.55 ± 0.18 | 0.0553 ± 0.21 |
| UGGAAGCAAUAUUACGCGUG | -0.258 ± 0.091 | -0.135 ± 0.12 |
| UGGAAGCAAUAUUACGCUGC | -3.48 ± 0.32 | -2.15 ± 0.38 |
| UGGAAGCAAUAUUACGGCAG | -1.15 ± 0.16 | -0.772 ± 0.25 |
| UGGAAGCAAUAUUACGGCCG | -0.385 ± 0.18 | -0.0898 ± 0.3 |
| UGGAAGCAAUAUUACGGGCA | -0.216 ± 0.083 | -0.335 ± 0.087 |
| UGGAAGCAAUAUUACGGGUU | -2.85 ± 0.18 | -2.38 ± 0.41 |
